Biological target: the molecule itself
Assay: cryo-EM structure; TdfH-CP complex formed on a StrepTactinXT column (CP preincubated with CaCl2 and ZnCl2), eluted with desthiobiotin, in PBS pH 7.4, 0.02% LMNG; Titan Krios 300 kV; 6.1 Å; CP seen as a dimer of S100A8-S100A9 heterodimers (heterotetramer)

B1: human calprotectin (CP), heterodimer of S100A8 and S100A9 (complex)
chain 1: MLTELEKALNSIIDVYHKYSLIKGNFHAVYRDDLKKLLETECPQYIRKKGADVWFKELDINTDGAVNFQEFLILVIKMGVAAHKKSHEESHKE
chain 2: KMSQLERNIETIINTFHQYSVKLGHPDTLNQGEFKELVRKDLQNFLKKENKNEKVIEHIMEDLDTNADKQLSFEEFIMLMARLTWASHEKMHEGDEGPGHHHKPGLGEGTP
notes: S100A8, human, subunit of calprotectin; S100A9, human, subunit of calprotectin; with calcium and zinc it stands as a heterotetramer (two heterodimers) in the cryo-EM complex; also called S100A8-S100A9 heterodimer; copies: 1 + 1
For B1, the “stoichiometry N” value was 2.
